Test results taken from patent publication US20140274782A1, “AFFINITY REAGENTS AND METHODS FOR DETECTION, PURIFICATION, AND PROTEOMIC ANALYSIS OF METHYLATED PROTEINS” (The Board of Trustees of the Leland Stanford Junior …, priority 2013, published 2014).

What was measured:
Assay in all cases: ProtoArray, GST-treated control array
Conditions in all cases: remark: other sources report otherwise
[1] = target: UBE2D2-Ubiquitin-conjugating enzyme E2 D2 (human), P62837
[2] = target: YPEL5-yippee-like 5 (Drosophila) (YPEL5) (human), P62699
YPEL5-yippee-like 5 (Drosophila) (YPEL5) (human), P62699, sequence (P62699 whole entry): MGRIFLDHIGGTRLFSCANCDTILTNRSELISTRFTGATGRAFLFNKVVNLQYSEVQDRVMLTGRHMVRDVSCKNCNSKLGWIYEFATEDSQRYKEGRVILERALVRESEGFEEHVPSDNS

[3] = target: C12orf23-chromosome 12 open reading frame 23 (C12orf23) (human), Q8WUH6

UBE2D2-Ubiquitin-conjugating enzyme E2 D2 (human), P62837, sequence (P62837 whole entry): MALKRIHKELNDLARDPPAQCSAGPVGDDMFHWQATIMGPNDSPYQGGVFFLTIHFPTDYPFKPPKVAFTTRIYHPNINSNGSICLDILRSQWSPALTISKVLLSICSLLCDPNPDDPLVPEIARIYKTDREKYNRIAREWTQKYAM

B1: 3× Flag-3×MBT (designed binder, not shown: a dimerising Fc or GST)
chain: EEWSSSQPATGEKKECWSWESYLEEQKAITAPVSLFQDSQAVTHNKNGFKLGMKLEGIDPQHPSMYFILTVAEVCGYRLRLHFDGYSECHDFWVNANSPDIHPAGWFEKTGHKLQPPKGYKEEEFSWSQYLRSTRAQAAPKHLFVSQSHSPPPLGFQVGMKLEAVDRMNPSLVCVASVTDVVDSRFLVHFDNWDDTYDYWCDPSSPYIHPVGWCQKQGKPLTPPQDYPDPDNFCWEKYLEETGASAVPTWAFKVRPPHSFLVNMKLEAVDRRNPALIRVASVEDVEDHRIKIHFDGWSHGYDFWIDADHPDIHPAGWCSKTGHPLQPPLGPREPSSASPGG
[1]
  GST Average SNR: -0.383
[2]
  GST Average SNR: -0.787
[3]
  GST Average SNR: 0.48
